B1: mouse coagulation factor X (enzyme)
chain: ANSFFEEFKKGNLERECMEEICSYEEVREIFEDDEKTKEYWTKYKDGDQCESSPCQNQGACRDGIGGYTCTCSEGFEGKNCELFVRKLCRLDNGDCDQFCREEQNSVVCSCASGYFLGNDGKSCISTAPFPCGKITTGRRKRSVALNTSDSELDLEDALLDEDFLSPTENPIELLNLNETQPERSSDDLVRIVGGRECKDGECPWQALLINEDNEGFCGGTILNEFYILTAAHCLHQARRFKVRVGDRNTEKEEGNEMVHEVDVVIKHNKFQRDTYDYDIAVLRLKTPITFRMNVAPACLPQKDWAESTLMTQKTGIVSGFGRTHEKGRQSNILKMLEVPYVDRNTCKLSTSFSITQNMFCAGYEAKLEDACQGDSGGPHVTRFKNTYYVTGIVSWGEGCARKGKYGIYTKVTTFLKWIDRSMKARVGPTAETPRTAGPPN
B2: Factor X-binding protein (X-bp) from Deinagkistrodon acutus (other)
chain 1: DCSSGWSSYEGHCYKVFKQSKTWADAESFCTKQVNGGHLVSIESSGEADFVGQLIAQKIKSAKIHVWIGLRAQNKEKQCSIEWSDGSSISYENWIEEESKKCLGVHIETGFHKWENFYCEQQDPFVCEA
chain 2: DCPSDWSSYEGHCYKPFNEPKNWADAENFCTQQHTGSHLVSFQSTEEADFVVKLAFQTFDYGIFWMGLSKIWNQCNWQWSNAAMLKYTDWAEESYCVYFKSTNNKWRSITCRMIANFVCEFQA
B3: human FXa mutant containing the C-terminal EGF2-SP domain (EGF2-SP FXa) (enzyme)
chain: TRKLCSLDNGDCDQFCHEEQNSVVCSCARGYTLADNGKACIPTGPYPCGKQTLERIVGGQECKDGECPWQALLINEENEGFCGGTILSEFYILTAAHCLYQAKRFKVRVGDRNTEQEEGGEAVHEVEVVIKHNRFTKETYDFDIAVLRLKTPITFRMNVAPACLPERDWAESTLMTQKTGIVSGFGRTHEKGRQSTRLKMLEVPYVDRNSCKLSSSFIITQNMFCAGYDTKQEDACQGDSGGPHVTRFKDTYFVTGIVSWGEGCARKGKYGIYTKVTAFLKWIDRSMKTRGLPKAKSHAPEVITSSPLK
modifications: biotinylated with biotin-FPRCK
notes: domain: EGF2-SP; also called EGF2-SP fragment; rFX EGF2-SP

Tests used:
[1] = target: Ixolaris, 12 kDa two-Kunitz domain protein isolated from tick salivary gland (tick, UniProt Q964Q0 27-165)
[2] = target: T1, human coagulation factor X (FX), full-length zymogen (human, UniProt P00742 41-488, genetically encoded glutamic acid residues of the Gla domain converted to γ-carboxyglutamic acid); assay: SPR (Biacore T100); human FX immobilised on CM5 chip, inhibitor injected; heterogeneous ligand model
T1 construct: mature; also called human FX; hFX

[3] = target: B1; assay: SPR (Biacore T100); mouse FX immobilised on CM5 chip, inhibitor injected; heterogeneous ligand model
[4] = target: T2, adenovirus serotype 5 (Ad5) virus particle (human adenovirus serotype 5, UniProt P04133 1-952); assay: SPR; biotinylated EGF2-SP FXa coupled to SA chip, Ad5 injected
T2 construct: also called Ad5CMVlacZ (control virus with unmodified hexon); intact virus Ad5

B1
Kd [1]: 0.000515 nM | koff [1]: 8.1e-07 s⁻¹ | kon [1]: 1.57e+06 M⁻¹ s⁻¹

B2
Kd [2]: 0.118 nM | koff [2]: 0.00023 s⁻¹ | kon [2]: 1.96e+06 M⁻¹ s⁻¹ | Kd [3]: 1.04 nM | koff [3]: 0.00031 s⁻¹ | kon [3]: 296000 M⁻¹ s⁻¹

B3
binding result [4]: no binding

From US20110104788A1 (published 2011)
